# Assay results taken from article PMC5763148.
# T1: murine CCL17 (mCCL17, TARC) (Mus musculus, UniProt Q9WUZ6 24-93)
# T1 sequence: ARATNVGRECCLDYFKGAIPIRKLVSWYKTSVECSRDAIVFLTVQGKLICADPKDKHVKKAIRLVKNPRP
# Tests used:
# Assay in all cases: SPR
# [1] = target: T1, murine CCL17 (mCCL17, TARC)
# [2] = target: human CCL17 (hCCL17, TARC) (Homo sapiens, UniProt Q92583 24-94)
# [3] = target: T1, murine CCL17 (mCCL17, TARC); remark: listed apart in the source
# Sequence of human CCL17 (hCCL17, TARC) (Q92583 24-94): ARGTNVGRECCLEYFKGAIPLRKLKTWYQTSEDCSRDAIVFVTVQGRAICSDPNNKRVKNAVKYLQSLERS
Binder,Kd [1] [nM],binding result [2],binding result [3]
"GGGAGGACGAUGCGGGAGCAGCAUUUGUGGUUUCCCGAUCGCUUCCC (structured_RNA, 2'-fluoro pyrimidines) [MF35.47]",7.5 ± 1.5,no binding,
"GGGGGCGUGUAUGCCAGACCUGCCGAUGUCCUUAAGGUCGACGCUGU (structured_RNA, 2'-fluoro pyrimidines) [control aptamer (scrambled MF35.47)]",,,no binding
"GGGUCGUCGCGGGUUGGCUCGUAGAUCGGGCCGGUACAGACGACCC (structured_RNA, 2'-fluoro pyrimidines) [MF11.46]",0.9 ± 0.1,no binding,
